Experimental data from the nanobody polyreactivity screen of Harvey et al. (2022).

Experiment: yeast display, Sf9 membrane polyspecificity reagent, FACS + sequencing; frameworks hold sequencing errors
In short: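 Nanobodies came from a synthetic yeast display library in Saccharomyces cerevisiae BJ5465, induced with galactose for 36–48 hours and stained for 1 hour at 4 °C with 10% biotinylated, detergent-solubilized Sf9 membrane reagent. Cells were enriched on streptavidin microbeads and then FACS-sorted, with low and high (top ~1%) gates set on anti-HA fluorescence for expression and streptavidin fluorescence for reagent binding. Each polyreactivity label reflects the gate a clone came from. Genes were amplified by colony PCR, sequenced by MiSeq 2 × 250 and filtered by CDR length.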

Row | Sequence | polyreactivity (PSR sort gate)
1 | QVQLVESGGGLVQAGGSLRFSCPASGSILTGYAMGWYRQAPGKERELVAAINFSGDNTYYADSVKGRFTISRDNAKNTVFLPMNSLKPEDTAVYYCNADGRYAYVWYDYCGQGTQVTVSS | low polyreactivity
2 | QVQLVESGGGLVQAGGSLRLSCAASGSIFGANAMGWYRQAPGKERELVAAISTRGGRTYYADSVKGRFTISRDIAKNTVYLQMNSLKPEDTAVYYCAAYSSYPEYRRGKYDYWGQGTQVTVSS | high polyreactivity
3 | QVQLVESGGGLVQAGGSLRLSCAASGRTLPKYVMGCYRQAPGKERELVDAISSSGDSTYYADSVKGRFTISRDNAKNTVYLQMNSLKPEDTAVYYCAKYDRNTYGYWGQGTQVTVSS | low polyreactivity
4 | QVQLVDSGGGLVKAGGSLRISCPASGITLKYYSMGWYRPSPGKERELVAAITRSGVGTYYADSVKGRFTISRDNAKNTVYLQMNSLKPEDTAVYYCAARGGWLQTKYDYWGQGTQVTVSS | high polyreactivity
5 | QVQLVESGGGLVQAGGSLRLSCAASGFTFYKYAMGWYRQAPGKERELVAGIRRGGTNYADSVKGRFTISRDNAKNTVYLQMNSLKPEDTAVYYCAADVRPYYSAYRGRYYYWGQGTQVTVSS | high polyreactivity
6 | QVQLVESGGGLVQAGGSLRLSCAASGSILYYNAMGWYRQAPGKERELVAAITSGGSTYADSVKGRFTISRDNAKNTFYLQMNCLKPEDTAVYYCAADLYWYLSDYGTTLEHDYWGQGTQVTVSS | low polyreactivity
7 | QVQLVESGGGLVQAGGSLRLSCAASGRIFAWYVMGWYRQAPGKEREFVAAIRWRSGSTHYADSVKGRFTISRDNAKNTVYLQMNSLKPEDTAVYYCARDVHGLLDYWGQGTQVTVSS | high polyreactivity
8 | QVQLVESGGGLVQAGGSLRLSCAASGRTFKYYAMGWYRQAPGKERELVASISRSGGITYYADSVKGRFTISRDNAKNTVYLQMNSLKPEDTAVYYCAARYSVRPISIYPFDFGYWGQGTQVTVSS | low polyreactivity
9 | QVQLVESGGGLVQAGGSLRLRCAASGYTFRGNAMAWYSQAPGKERDLVAGISQTGGNTYYADSVKGRFTISRDNAKNTVYLQMNSLKPEDTAVYYCATTRRPYVRGYPHYYWGQGTEVTVSS | high polyreactivity
10 | QVQLVYSGGGLVQAGGSLRLSCAASGLILWPYTMGWYRQSPWKERELVAAISSSGGSTYYADSVKGRFTISRDNAKNTVYLQMNSLKPEDTAVYYCAAVCWVISGKNGAGSMDYWGLGTQVTVSS | high polyreactivity
11 | QVQLVESGGGLVQAGGSLRLSCAASGRTSWYTMGWYRQAPGKERELVAAISGSGGITYYADSVKGRFTISRDNAKNTVYLQMNSLKPEDTAVYYCNALRPRSLTEMYYWGQGTQVTVSP | high polyreactivity
12 | QVQLVESGGGLVQAGGSLRLSCAPSGSTFRTYAMGWYRQAPGKERELVAAISSGDNTNYADSVKGRFTISRDNAKNTAYLQMNSLKPEDTAVYYCASRAYRWRSFYTMYYCGQGTQVTVSS | high polyreactivity
13 | QVQLVESGGGLVQPGGSLRLSCAASGRIQRYYAMGWYRQAPGKERELVAVITSSDGSTYYADSVKGRFTISRDNAKNTVYLQMNRLKPEDTAVYYCAAAPLWRLASWWDPYRRYDYWGQGTLVTVSS | low polyreactivity
14 | QVQLVESGGGLVQAGGSLRLSCAASGFTFVSNDMGWYRQEPGKERELVAAISQGGGSTYYADSVKGRFTISRDNAKNTVYLQINSLKPEDTAVYYCAAEDVYFGYDYWGQGTQVTVSS | low polyreactivity
15 | QVQLVESGGGLVQAGGSLRLSCAASGRTFSDYAMGWYRQAPGKERELVAAITSSSGTTYYADSVKGRFTISRDNAKNTVYFQMNSLKPEDTAVYYCAAGHPYSLSERYNYWGQGTQVTVSS | low polyreactivity
16 | QVQLVESGGGLVQAGGSLRLSCAASGSNVYIYAMGWYRQAPGKERELVASINSGGSTNYADSVKGRFTISRDNAKNTVYLQMNSLKPEDTAVYYCNADVYDTYSPLGYYYWGQGTQVTVSS | low polyreactivity
17 | QVQLVESGGGLVQAGGSLRLSCAASGRIFPSYAMGSSRQAPGKEREFVAAITWSGTDTYYADSVQGRFTISRDNAKNTVYLQMTSLKPEDTAVYYCAAEEYVEVDTTAYDYWGQGTQVTVSS | low polyreactivity
18 | QVQLVESGGGLVQAGGSLRLSCAASGYTFNYYAMGWYRQAPGKEREFVASTYADSVKGRFTISRDNAKNTVYLQMNSLKPEDTAVYYCNARNLGRYLVLSYGYWRQGTQVTVSS | low polyreactivity
19 | QVQLVESGGGLVQAGGSHRLSCAASGIIFSGNAMGWYRQAPGKERELVAAITRGGRTYYADSVKGRFTISRDNAKNTVYLQMNSLKPEDTAVYYCNKRYRYKYDYWGQGTQVTVSS | high polyreactivity
20 | QVQLVESGGGLVQAGGSLRLSFAASGLIFSYYAMVWYRQAPGKERELVAAISSSGGSTYYADSVKGRFTISRDYAKNTVYLQMNSLKPEDTAVYYCARKLTRRFYQYDYWGQGTQVTVSS | high polyreactivity
21 | QVQLVESGGGLVQARGSLRLSCAASGRIFGLYAMGWYRQAPGKERELVASINSRGGSTNYADSVKGRFTISRDNAKNTVYLQMTSLKPEDTAVYYCNARFVYAYQRYYWGQGTQVTVSS | high polyreactivity
